Publication PMC4658334, “Reassessment of MxiH subunit orientation and fold within native Shigella T3SS needles using surface labelling and solid-state NMR” (Journal of Structural Biology, 2015)
Substitutions are numbered along the chain they refer to.

B1: MxiH L32C (natural protein)
chain: MSVTVPNDDWTLSSLSETFDDGTQTLQGELTCALDKLAKNPSNPQLLAEYQSKLSEYTLYRNAQSNTVKVIKDVDAAIIQNFR
notes: MxiH, needle subunit of the T3SS, Shigella flexneri, with leucine 32 changed to cysteine; cloned into pACT3 via NdeI and HindIII; Printed mass of the unlabelled subunit is 9123.5 Da; source: S. flexneri, expressed from pACT3 with 200 μM IPTG; needles purified
B2: MxiH, needle subunit of the Shigella flexneri type III secretion system (wild type, serotype 5) (natural protein)
chain: B1 chain with C32L
modifications: uniformly 13C,15N labelled
notes: MxiH, needle subunit of the T3SS, Shigella flexneri serotype 5; expressed from pACT3mxiH; arranged as a helical polymer (needle); Helical polymer; also called WT MxiH; native MxiH needles; source: S. flexneri ΔmxiH (pACT3mxiH), 200 μM IPTG, M9-type minimal medium; in vivo assembled needles shaved from the bacterial surface and purified
B3: MxiH V68C (natural protein)
chain: B1 chain with C32L, V68C
notes: MxiH, needle subunit of the T3SS, Shigella flexneri, with valine 68 changed to cysteine; gene synthesized and cloned into pACT3 via NdeI and HindIII; Printed mass of the unlabelled subunit is 9137.5 Da; source: S. flexneri, expressed from pACT3 with 200 μM IPTG; needles purified

Columns and labels:
[1] = target: the molecule itself; test: negative-stain electron microscopy of purified needles; purified needle preparations, about 0.1 μg/ml, on carbon-coated grids, stained with 1% phosphotungstic acid pH 7; self-association of the subunit into the needle polymer
[2] = target: the molecule itself; test: solid-state NMR; 5-7 mg of uniformly 13C,15N labelled natively grown needles packed in a 1.9 mm rotor; 20.0 T, 18 kHz MAS; self-association of the subunit into the needle polymer

Protein	binding result [1]	binding result [2]
B1	binds	
B2		binds
B3	binds	
